Sequences and labels used below:
T1: CAV1 untagged (UniProt Q03135 1-178)
T1 construct: caveolin-1 (CAV1), untagged; construct cloned as described in Hill et al. (2008); also called caveolin-1; source: MCF-7 cells, transfected, in post nuclear supernatant
T1 sequence (looked up): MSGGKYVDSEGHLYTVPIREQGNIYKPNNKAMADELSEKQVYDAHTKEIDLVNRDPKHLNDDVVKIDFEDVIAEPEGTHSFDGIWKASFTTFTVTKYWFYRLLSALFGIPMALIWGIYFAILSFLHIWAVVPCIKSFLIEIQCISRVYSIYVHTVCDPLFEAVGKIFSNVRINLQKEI

T2: cavin3-GFP (UniProt Q969G5 1-261)
T2 construct: construct cloned as described in Hill et al. (2008); The only hint on species is the keyword 'human'; the cDNA may be of mouse (surmise); also called SRBC; source: MCF-7, MDCK or HeLa cells, transfected (Lipofectamine 2000), in supernatant of mechanically lysed cells
T2 sequence (looked up): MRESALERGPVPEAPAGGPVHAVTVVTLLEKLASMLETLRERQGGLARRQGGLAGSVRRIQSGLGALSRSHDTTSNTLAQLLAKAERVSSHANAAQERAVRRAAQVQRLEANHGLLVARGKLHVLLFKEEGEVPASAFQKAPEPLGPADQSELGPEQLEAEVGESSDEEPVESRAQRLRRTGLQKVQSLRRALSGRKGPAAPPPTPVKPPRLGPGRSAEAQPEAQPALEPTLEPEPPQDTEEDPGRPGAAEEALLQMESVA

T3: CAV1-GFP (UniProt Q03135 1-178)
T3 construct: caveolin-1 (CAV1); construct cloned as described in Hill et al. (2008); membrane protein, seen on caveolae in the cell extract; also called caveolin-1; Caveolin-1; source: MCF-7 cells, transfected, in post nuclear supernatant
T3 sequence (looked up): T1 sequence (looked up)

T4: cavin1-GFP (cell-free) (UniProt Q6NZI2 1-390)
T4 construct: cavin1 / polymerase transcript release factor (PTRF); ORF in a Gateway DNA template for cell-free expression; also called PTRF; source: Leishmania tarentolae cell-free system (LTE), in vitro translated, not purified; not shown: eGFP, N-terminal, kept
T4 sequence (looked up): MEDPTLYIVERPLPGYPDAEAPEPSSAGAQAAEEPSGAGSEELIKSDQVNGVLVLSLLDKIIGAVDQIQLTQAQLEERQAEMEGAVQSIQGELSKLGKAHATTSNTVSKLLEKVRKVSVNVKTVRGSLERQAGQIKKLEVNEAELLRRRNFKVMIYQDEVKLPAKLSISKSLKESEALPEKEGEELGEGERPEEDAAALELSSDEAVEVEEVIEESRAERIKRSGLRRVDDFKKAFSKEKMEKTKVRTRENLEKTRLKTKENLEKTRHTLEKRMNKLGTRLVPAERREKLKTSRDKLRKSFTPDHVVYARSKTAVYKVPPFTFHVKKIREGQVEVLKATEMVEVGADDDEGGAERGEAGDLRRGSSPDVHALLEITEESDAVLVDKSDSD

B1: cavin1-GFP (natural protein, UniProt Q6NZI2 1-390, looked up)
chain: T4 sequence (looked up)
notes: cavin1 / polymerase transcript release factor (PTRF); construct cloned as described in Hill et al. (2008); The only hint on species is the keyword 'human'; the cDNA may be of mouse (surmise); also called polymerase transcript release factor; PTRF; source: MCF-7 or MDCK cells, transfected (Lipofectamine 2000), in supernatant of mechanically lysed cells
B2: cavin1-Cherry (natural protein, UniProt Q6NZI2 1-390, looked up)
chain: T4 sequence (looked up)
notes: cavin1 / polymerase transcript release factor (PTRF); construct cloned as described in Hill et al. (2008); The only hint on species is the keyword 'human'; the cDNA may be of mouse (surmise); also called PTRF; source: MCF-7 or MDCK cells, transfected (Lipofectamine 2000), in supernatant of mechanically lysed cells
B3: cavin3-Cherry-myc (cell-free) (natural protein, UniProt Q969G5 1-261, looked up)
chain: T2 sequence (looked up)
notes: cavin3 / SRBC; ORF in a Gateway DNA template for cell-free expression; also called SRBC; cavin3-myc; source: Leishmania tarentolae cell-free system (LTE), in vitro translated, not purified; not shown: mCherry, C-terminal, kept; Myc, C-terminal, kept
B4: cavin3-Cherry (natural protein, UniProt Q969G5 1-261, looked up)
chain: T2 sequence (looked up)
notes: construct cloned as described in Hill et al. (2008); The only hint on species is the keyword 'human'; the cDNA may be of mouse (surmise); also called SRBC; C3-C; source: MCF-7 or MDCK cells, transfected (Lipofectamine 2000), in supernatant of mechanically lysed cells
B5: cavin2-GFP (natural protein, UniProt O95810 1-425, looked up)
chain: MGEDAAQAEKFQHPGSDMRQEKPSSPSPMPSSTPSPSLNLGNTEEAIRDNSQVNAVTVLTLLDKLVNMLDAVQENQHKMEQRQISLEGSVKGIQNDLTKLSKYQASTSNTVSKLLEKSRKVSAHTRAVKERMDRQCAQVKRLENNHAQLLRRNHFKVLIFQEENEIPASVFVKQPVSGAVEGKEELPDENKSLEETLHTVDLSSDDDLPHDEEALEDSAEEKVEESRAEKIKRSSLKKVDSLKKAFSRQNIEKKMNKLGTKIVSVERREKIKKSLTSNHQKISSGKSSPFKVSPLTFGRKKVREGESHAENETKSEDLPSSEQMPNDQEEESFAEGHSEASLASALVEGEIAEEAAEKATSRGSNSGMDSNIDLTIVEDEEEESVALEQAQKVRYEGSYALTSEEAERSDGDPVQPAVLQVHQTS
notes: cavin2 / SDPR (serum deprivation response protein); construct cloned as described in Hill et al. (2008); The only hint on species is the keyword 'human'; the cDNA may be of mouse (surmise); also called SDPR; serum deprivation response protein; source: MCF-7 or MDCK cells, transfected (Lipofectamine 2000), in supernatant of mechanically lysed cells

Data set [1] concerns the molecule itself. The data set can be described thus: single-molecule brightness analysis; burst brightness of fluorescent cavins in supernatant of MCF-7 cells without CAV1, calibrated on monomeric GFP (maximum 100 photons).
In data set [2] the target is T1, CAV1 untagged. The data set can be described thus: single-molecule brightness analysis; burst brightness in supernatant of MCF-7 cells transfected with CAV1-GFP, or with cavin1-GFP and untagged CAV1; calibrated on a single GFP. The following applies: partners not purified.
Data set [3] deals with the molecule itself. The data set is described as above.
In data set [4] the target is B1. Briefly: single-molecule brightness analysis; burst brightness of oligomers in the cytoplasmic fraction of MDCK cells after hypo-osmotic treatment (20 min). The following applies: partners not purified.
Data set [5] has as its target B5. The data set can be described thus: single-molecule two-colour fluorescence coincidence; MDCK cells (endogenous cavin1 and CAV1) co-transfected; cytoplasmic fraction after hypo-osmotic treatment (DMEM 1:10 in water, 20 min, 37°C). The following applies: partners not purified.
Data set [6] has as its target T2, cavin3-GFP. The description is as above. The following applies: partners not purified.
In data set [7] the target is T3, CAV1-GFP. Briefly: single-molecule two-colour fluorescence coincidence; MCF-7 cells expressing CAV1-GFP and cavin1-Cherry; caveolae in the post nuclear supernatant. The following applies: partners not purified.
The target in data set [8] is T4, cavin1-GFP (cell-free). Briefly: single-molecule two-colour fluorescence coincidence; co-expression in the Leishmania tarentolae cell-free system at DNA ratios from 100% GFP to 100% Cherry; >1000 bursts for each ratio. The following applies: partners not purified.

Several values for one entry are separate records, joined by “and”; a condition that tells them apart may be missing. Identical values can stand only once.

On to B1, for which the stoichiometry N (commonly the number of molecules, sites or subunits per partner or assembly) in data set [1] is 50 ± 5 proteins per complex; in data set [3] it was 40 to 50 cavin1 per caveola. The “brightness of CAV1-GFP over cavin1-GFP” value in data set [2] came out at 3.5 fold.
Regarding B2, the “stoichiometry N” value in data set [4] is 9 cavin1 proteins per oligomer and 8 cavin1 proteins per oligomer to 10 cavin1 proteins per oligomer (2×); in data set [5] it was 2 cavin1 per cavin2; in data set [6], roughly 2 cavin1 per cavin3; in data set [7], 3 CAV1 per cavin1 and 4 CAV1 per cavin1.
As for B3, the “stoichiometry N” value in data set [8] amounted to 3 cavin1 per cavin3.
On to B4, for which the “stoichiometry N” value in data set [1] is roughly 50 monomers.
For B5, the “stoichiometry N” value in data set [1] was roughly 50 monomers.
